The test system of this data set is HK-2 cells. Kind of data set: Sepsis-associated AKI model: cell-free hemoglobin-treated HK-2 cells, MTT, LDH, CC3, Ki-67, MDA. In kind it is cell-based. The protocol:
Immortalized human cortical and proximal tubular epithelial (HK-2) cells were cultured in DMEM-F-12 with FBS [10% (wt/vol)] (Life Technologies, Carlsbad, CA), Insulin-Transferrin-Selenium (ITS) (Corning, Corning, NY), hydrocortisone (0.1 μM), and 1% Penicillin/Streptomycin. […] To induce the sepsis-associated AKI model, cells at confluence were exposed to 1 mg/ml purified cell-free hemoglobin (CFH) for 48 h. For all experiments, we used CFH purified from normal human blood by high pressure liquid chromatography (Pishchany, G., et al. J Vis Exp. 2013 Feb. 7 (72): 50072). After 48 h, the control or treated cells were harvested for immunostaining or assays. In both models, culture media was replaced after 48 h. For iNP-EV treatment, 10 μg of EVs was added to cells for the next 24 h.
The organoids were washed with PBS and then treated with MTT (3-(4,5-dimethylthiazol-2-yl)-2,5-diphenyltetrazolium bromide) reagent (Sigma-Aldrich) (1 mg/ml) for at least 60 min, leading to the purple formazan formation in living cells. The reagents were then removed and isopropanol was added to dissolve the insoluble formazan. The absorbance of the colored solution was measured using a microplate reader at 560 nm and 690 nm. Background absorbance at 690 nm was subtracted from absorbance at 560 nm and the O.D. values were plotted to measure cell viability.
LDH release from the cells was evaluated using CyQUANT™ LDH Cytotoxicity Assay Kit. Briefly, cell culture medium was collected for other purposes at 48 h after the treatment. The cells were treated with 10% Triton X-100 and incubated for 15 min before to obtain the maximum LDH release from the sample. Cell culture media was collected and 50 μl of each sample was transferred into a 96-well opaque-walled, non-transparent assay plate. The LDH detection reagent was prepared by combining the LDH detection enzyme mix and reductase substrate. Then 50 μl of detection reagent was added to each well. The wells were incubated for 60 min at room temperature. […] was recorded on a plate reader at 490 nm and the corresponding O.D. was plotted to quantify cell death.

Where [1] appears, read: HK-2, 1 mg/ml CFH 48 h vs control.

In the case of “CFH: cell-free hemoglobin purified from normal human blood by high pressure liquid chromatography; induces sepsis-associated AKI model”, the “concentration of Malondialdehyde (MDA), lipid peroxidation” value (HK-2, 1 mg/ml CFH 48 h, without CFH ~3.5 μM, p<0.0001) is 22.5 µM. Under setting [1], the “cleaved caspase-3 staining” value is given as “increased” and the “proliferation by Ki-67 staining” value is recorded as “not different between the groups”. Further, the LDH release result (HK-2, 1 mg/ml CFH 48 h vs control, p<0.005) is listed as “higher LDH release”. The “viability (MTT assay)” value (HK-2, 1 mg/ml CFH 48 h vs control, p=0.0001) is on record as “substantial decline in viability”.
